Substrate: S proteins of SARS-CoV-2 and mutant strains thereof on pseudoviruses
Experiment: cell-based or functional assay

B1: fully human monoclonal antibody 76E1 (antibody, V domains shown)
VH: EVQLVESGGGVVQPGGSLRLSCEASGFSFKDYGMHWIRQTPGKGLEWISRISGDTRGTSYVDSVKGRFIVSRDNSRNSLFLQMNSLRSEDTALYYCAALVIVAAGDDFDLWGQGTVVTVSS
VL: QSALTQPLSVSGSPGQSVTISCTGSSSDIGSYNFVSWYRQYPGKAPKVMIYEVNKRPSGVPVRFSGSKSGNTASLTVSGLQHEDEADYYCCSYGGRNNLIFGGGTKLTVL
Question: Which IC50 of pseudovirus neutralization (luciferase activity) does the source give for B1 here?
Answer: 0.397 µg/mL

Source: US20240067706A1
